Measurements published in patent US20230002480A1.

Legend:
Experiment in all cases: cell-based or functional assay
[1] = target: HIV-1 Env of pseudovirus C4118.c09 (HIV-1)
[2] = target: HIV-1 Env of pseudovirus C3347.c11 (HIV-1)
[3] = target: HIV-1 Env of pseudovirus 6540.v4.c1 (HIV-1)
[4] = target: HIV-1 Env of pseudovirus R3265.c06 (HIV-1)
[5] = target: HIV-1 Env of pseudovirus BJOX010000.06.2 (HIV-1)
[6] = target: HIV-1 Env of pseudovirus BJOX025000.01.1 (HIV-1)
[7] = target: HIV-1 Env of pseudovirus T257-31 (HIV-1)
[8] = target: HIV-1 Env of pseudovirus X1193_c1 (HIV-1)
[9] = target: HIV-1 Env of pseudovirus 0260.v5.c36 (HIV-1)
[10] = target: HIV-1 Env of pseudovirus C1080.c03 (HIV-1)
[11] = target: HIV-1 Env of pseudovirus 6952.v1.c20 (HIV-1)
[12] = target: HIV-1 Env of pseudovirus X1632_S2_B10 (HIV-1)
[13] = target: HIV-1 Env of pseudovirus P0402_c2_11 (HIV-1)
[14] = target: HIV-1 Env of pseudovirus 6480.v4.c25 (HIV-1)
[15] = target: HIV-1 Env of pseudovirus T251-18 (HIV-1)
[16] = target: HIV-1 Env of pseudovirus 231966.c02 (HIV-1)
[17] = target: HIV-1 Env of pseudovirus 191955_A11 (HIV-1)

## N49P11 (antibody)
[1]
  IC50: 0.094 µg/mL
  IC80: 0.346 µg/mL
  MPI: 100
[2]
  IC50: 0.055 µg/mL
  IC80: 0.192 µg/mL
  MPI: 100
[3]
  IC50: 3.05 µg/mL
  IC80: 16.3 µg/mL
  MPI: 100
[4]
  IC50: 0.161 µg/mL
  IC80: 0.971 µg/mL
  MPI: 100
[5]
  IC50: 6.81 µg/mL
  IC80: 21.8 µg/mL
  MPI: 100
[6]
  IC50: 0.361 µg/mL
  IC80: 2.58 µg/mL
  MPI: 100
[7]
  IC50: 0.7 µg/mL
  IC80: 2.9 µg/mL
  MPI: 100
[8]
  IC50: 0.179 µg/mL
  IC80: 1.09 µg/mL
  MPI: 100
[9]
  IC50: 0.438 µg/mL
  IC80: 1.47 µg/mL
  MPI: 100
[10]
  IC50: 0.162 µg/mL
  IC80: 1.45 µg/mL
  MPI: 100
[11]
  IC50: 6.57 µg/mL
  IC80: 22.7 µg/mL
  MPI: 100
[12]
  IC50: 9.73 µg/mL
  IC80: 26.1 µg/mL
  MPI: 100
[13]
  IC50: 0.091 µg/mL
  IC80: 0.698 µg/mL
  MPI: 100
[14]
  IC50: 0.227 µg/mL
  IC80: 1.03 µg/mL
  MPI: 100
[15]
  IC50: 3.05 µg/mL
  IC80: 16.7 µg/mL
  MPI: 100
[16]
  IC50: 4.31 µg/mL
  IC80: 16 µg/mL
  MPI: 100
[17]
  IC50: 2.74 µg/mL
  IC80: 15.3 µg/mL
  MPI: 100
